{"source": "patent US9102758B2", "about": "“Insulin-oligomer conjugates, formulations and uses thereof” (priority 2004, dated 2015)", "key": {"chymotrypsin enzyme [1]": {"test_system": "chymotrypsin enzyme", "assay": "In vitro enzyme resistance (chymotrypsin) of HIM2 and its complexes", "details": "chymotrypsin digest, 37° C., pH about 7.4", "experimental": "Lyophilized chymotrypsin enzyme was resuspended in 1 mM HCl to a concentration of 7.53 U/mL. A 1.53 mL aliquot of each sample was added to sample tubes and 0.850 mL into control tubes. Samples were tested in duplicate along with four control tubes per sample. […] Then 17 μL of chymotrypsin enzyme was added to each sample tube. Five μL of 1 mM HCl was added to each control tube. Immediately following the additions, 200 μL was removed from the sample and the control tubes and placed into 50 μL of 1% TFA previously aliquoted out into centrifuge tubes. This sample serves as T=0.\n(§1) The control procedure was repeated at the following intervals: 0, 8, 15, 30 minutes. For T-type and R-type samples, the procedure was repeated at the following intervals: 0, 5, 8, 12, 30, 40 and 60 minutes. The control procedure for the Zn complexes was repeated at the following intervals: 0, 12, 40 and 60 minutes. Samples were stored at −20° C. until analysis can occur via HPLC. HPLC was performed to determine percent degradation relative to the respective T=0 minute for each digest. The natural log of the percent remaining was plotted versus time and a linear regression run for each digest. The half life was calculated using the equation: t=−0.693/slope."}, "male CF-1 mice": {"test_system": "male CF-1 mice", "assay": "Extended Mouse Blood Glucose Assay (MBGA)", "format": "in vivo", "details": "subcutaneous", "description": "Six paired-dose groups of 5 male CF-1 mice (Charles River Laboratories; 25-30 g) received subcutaneous injections of either the insulin compound conjugate (test article) or recombinant human insulin. The test article was reconstituted with phosphate buffer (0.01 M, a pH of about 7.4) containing 0.1% w/w bovine serum albumin and dosed at 100, 66.6, 43.3, 30, 20, and 13.3 μg/kg. Insulin compound was reconstituted with phosphate buffer (0.01 M, a pH of about 7.4) containing 0.1% w/w bovine serum albumin and dosed at 50, 33.3, 21.7, 15, 10, and 6.7 μg/kg. […] Blood samples were collected in heparin tubes for glucose assay. If glucose assay was delayed, the tubes were stored in ice water and re-warmed to room temperature before assay.\nPlasma glucose was measured with a glucometer (e.g., One Touch® Basic; Lifescan), which was calibrated at the beginning of each day of use according to the manufacturer's instructions. The potency of the insulin compound conjugate was then calculated relative to the standard curve that was generated for the recombinant human insulin response. Calculations were based upon the assumption that recombinant human insulin has a potency of 27.4 IU/mg."}, "chymotrypsin enzyme [2]": {"test_system": "chymotrypsin enzyme", "experimental": "Lyophilized chymotrypsin enzyme was resuspended in 1 mM HCl to a concentration of ˜7.53 U/mL. A 1.53 mL aliquot of each sample was added to sample tubes and 0.850 mL into control tubes. Samples were tested in duplicate along with four control tubes per sample. […] Then 17 μL of chymotrypsin enzyme was added to each sample tube. Five μL of 1 mM HCl was added to each control tube. Immediately following the additions, 200 μL was removed from the sample and the control tubes and placed into 50 μL of 1% TFA previously aliquoted out into centrifuge tubes. This sample serves as T=0.\nas §1"}, "[3]": {"format": "physicochemical", "description": "Two hundred microliters of 0.1M Phosphate Buffer Saline (PBS, filtered, pH=7.4) was added to a 1 mL conical reaction vial. To this vial, a small amount of sample was added slowly until saturation is observed. Periodically, the solution was vortexed. […] After centrifugation, 10 μL of the sample was removed from the supernatant and diluted in 490 μL buffer (0.1 M PBS). This diluted sample was analyzed via HPLC to determine its' concentration."}}, "note": "Like-named read-outs stand apart in the source and are kept apart here."}
{"substance": "HIM2 (R-type zinc complex): R-type zinc complex of HIM2, 1.1% w/w zinc", "values": [{"measurement": "T half", "setting": "chymotrypsin enzyme [1]; 0.3 mg/mL protein", "result": "19 to 21", "unit": "min"}]}
{"substance": "HIM2 (R-type zinc/protamine complex): R-type zinc complex of HIM2 with protamine", "values": [{"measurement": "T half", "setting": "chymotrypsin enzyme [1]; 0.6 mg/ml protein", "result": "95 to 120", "unit": "min"}, {"measurement": "glucose lowering effect at 30 and 90 minutes post dose", "setting": "male CF-1 mice", "result": "greater glucose reduction at 30 minutes than 90 minutes"}]}
{"substance": "HIM2 (T-type zinc complex): T-type zinc complex of HIM2, 0.55% w/w zinc", "values": [{"measurement": "T half", "setting": "chymotrypsin enzyme [1]; 0.3 mg/mL protein", "result": "12 to 15", "unit": "min"}]}
{"substance": "HIM2: human insulin monoconjugate with a modifying moiety coupled at B29", "values": [{"measurement": "biopotency (MBGA) on complexation with Zn++", "setting": "male CF-1 mice; plasma glucose 30 minutes post dose, relative to recombinant human insulin", "result": "not significantly reduced"}]}
{"substance": "IN105 (T-type zinc complex): T-type Zn complex of IN105, 1.88% w/w zinc; same zinc content as reaction 9.5.3", "values": [{"measurement": "T half", "setting": "chymotrypsin enzyme [2]", "result": 54.8, "unit": "min"}]}
{"substance": "Reaction 9.3.3: R-type Zn Complex of HIM2 with Protamine at Acidic pH", "values": [{"measurement": "Solubility", "setting": "[3]; pH 7.4", "result": 36.78, "unit": "mg/mL"}]}
{"substance": "Reaction 9.5.1: T-Type Zn Complex of IN105 Monoconjugate (10 g/L Concentration)", "values": [{"measurement": "Solubility (mg/mL) in a pH of about 7.4, 0.1M phosphate buffer", "setting": "[3]", "result": "80-85 mg/mL"}]}
{"substance": "Reaction 9.5.2: T-Type Zn Complex of IN105 Monoconjugate (1 g Scale)", "values": [{"measurement": "Solubility (mg/mL) in a pH of about 7.4, 0.1M phosphate buffer", "setting": "[3]", "result": "10-20 mg/mL"}]}
{"substance": "Reaction 9.6.2: R-Type Zn Complex of IN105 Conjugate at 5 g Scale", "values": [{"measurement": "Solubility", "setting": "[3]", "result": "10 to 25", "unit": "mg/mL"}]}
